From patent US20110183861A1 (ABLYNN N V, published 2011)

T1: human RANKL (human, UniProt O14788 140-317, limits assumed)
T1 sequence (looked up): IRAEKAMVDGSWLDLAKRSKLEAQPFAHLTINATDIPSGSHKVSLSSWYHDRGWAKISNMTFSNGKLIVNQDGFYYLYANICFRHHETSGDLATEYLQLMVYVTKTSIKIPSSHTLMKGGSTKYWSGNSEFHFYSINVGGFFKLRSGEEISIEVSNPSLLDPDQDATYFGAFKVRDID

B1: SEQ ID NO: 2 D62A (VHH)
VHH: EVQLVESGGGLVQPGGSLRLSCAASGRTFSYNPMGWFRQAPGKGRELVAAISRTGGSTYYPASVEGRFTISRDNAKRMVYLQMNSLRAEDTAVYYCAAAGVRAEDGRVRTLPSEYTFWGQGTQVTVSS
B2: SEQ ID NO: 2 M34A (VHH)
VHH: EVQLVESGGGLVQPGGSLRLSCAASGRTFSYNPAGWFRQAPGKGRELVAAISRTGGSTYYPDSVEGRFTISRDNAKRMVYLQMNSLRAEDTAVYYCAAAGVRAEDGRVRTLPSEYTFWGQGTQVTVSS
B3: SEQ ID NO: 2 D105Q (VHH)
VHH: EVQLVESGGGLVQPGGSLRLSCAASGRTFSYNPMGWFRQAPGKGRELVAAISRTGGSTYYPDSVEGRFTISRDNAKRMVYLQMNSLRAEDTAVYYCAAAGVRAEQGRVRTLPSEYTFWGQGTQVTVSS
B4: SEQ ID NO: 2 S63G (VHH)
VHH: EVQLVESGGGLVQPGGSLRLSCAASGRTFSYNPMGWFRQAPGKGRELVAAISRTGGSTYYPDGVEGRFTISRDNAKRMVYLQMNSLRAEDTAVYYCAAAGVRAEDGRVRTLPSEYTFWGQGTQVTVSS
B5: SEQ ID NO: 2 D105E (VHH)
VHH: EVQLVESGGGLVQPGGSLRLSCAASGRTFSYNPMGWFRQAPGKGRELVAAISRTGGSTYYPDSVEGRFTISRDNAKRMVYLQMNSLRAEDTAVYYCAAAGVRAEEGRVRTLPSEYTFWGQGTQVTVSS
B6: SEQ ID NO: 2 D105N (VHH)
VHH: EVQLVESGGGLVQPGGSLRLSCAASGRTFSYNPMGWFRQAPGKGRELVAAISRTGGSTYYPDSVEGRFTISRDNAKRMVYLQMNSLRAEDTAVYYCAAAGVRAENGRVRTLPSEYTFWGQGTQVTVSS
B7: SEQ ID NO: 2 M83A (VHH)
VHH: EVQLVESGGGLVQPGGSLRLSCAASGRTFSYNPMGWFRQAPGKGRELVAAISRTGGSTYYPDSVEGRFTISRDNAKRMVYLQANSLRAEDTAVYYCAAAGVRAEDGRVRTLPSEYTFWGQGTQVTVSS
B8: Stab. 12A2H1; SEQ ID NO: 2 with E1D, D62E, M78T, D105Q (VHH)
VHH: DVQLVESGGGLVQPGGSLRLSCAASGRTFSYNPMGWFRQAPGKGRELVAAISRTGGSTYYPESVEGRFTISRDNAKRTVYLQMNSLRAEDTAVYYCAAAGVRAEQGRVRTLPSEYTFWGQGTQVTVSS
notes: also called 12A2H1 SV1; 12A2h1SV1
B9: SEQ ID NO: 2 M78A (VHH)
VHH: EVQLVESGGGLVQPGGSLRLSCAASGRTFSYNPMGWFRQAPGKGRELVAAISRTGGSTYYPDSVEGRFTISRDNAKRAVYLQMNSLRAEDTAVYYCAAAGVRAEDGRVRTLPSEYTFWGQGTQVTVSS
B10: SEQ ID NO: 2 D62E (VHH)
VHH: EVQLVESGGGLVQPGGSLRLSCAASGRTFSYNPMGWFRQAPGKGRELVAAISRTGGSTYYPESVEGRFTISRDNAKRMVYLQMNSLRAEDTAVYYCAAAGVRAEDGRVRTLPSEYTFWGQGTQVTVSS
B11: SEQ ID NO: 2 D105S (VHH)
VHH: EVQLVESGGGLVQPGGSLRLSCAASGRTFSYNPMGWFRQAPGKGRELVAAISRTGGSTYYPDSVEGRFTISRDNAKRMVYLQMNSLRAEDTAVYYCAAAGVRAESGRVRTLPSEYTFWGQGTQVTVSS
B12: SEQ ID NO: 2 D105T (VHH)
VHH: EVQLVESGGGLVQPGGSLRLSCAASGRTFSYNPMGWFRQAPGKGRELVAAISRTGGSTYYPDSVEGRFTISRDNAKRMVYLQMNSLRAEDTAVYYCAAAGVRAETGRVRTLPSEYTFWGQGTQVTVSS
B13: SEQ ID NO: 2 D105A (VHH)
VHH: EVQLVESGGGLVQPGGSLRLSCAASGRTFSYNPMGWFRQAPGKGRELVAAISRTGGSTYYPDSVEGRFTISRDNAKRMVYLQMNSLRAEDTAVYYCAAAGVRAEAGRVRTLPSEYTFWGQGTQVTVSS
B14: RANKL-1_D62E (VHH)
VHH: EVQLVESGGGLVQPGGSLRLSCAASGFTFSSYPMGWFRQAPGKGREFVSSITGSGGSTYYAESVKGRFTISRDNAKNTLYLQMNSLRPEDTAVYYCAAYIRPDTYLSRDYRKYDYWGQGTLVTVSS
notes: Expressed from pAX054 in the periplasm of E. coli; not shown: C-terminal c-myc tag and (His)6 tag coded by vector pAX054
B15: RANKL-1 (VHH)
VHH: EVQLVESGGGLVQPGGSLRLSCAASGFTFSSYPMGWFRQAPGKGREFVSSITGSGGSTYYADSVKGRFTISRDNAKNTLYLQMNSLRPEDTAVYYCAAYIRPDTYLSRDYRKYDYWGQGTLVTVSS
notes: as for B14
B16: SEQ ID NO: 1, ALX-0081 (VHH)
chain: EVQLVESGGGLVQPGGSLRLSCAASGRTFSYNPMGWFRQAPGKGRELVAAISRTGGSTYYPDSVEGRFTISRDNAKRMVYLQMNSLRAEDTAVYYCAAAGVRAEDGRVRTLPSEYTFWGQGTQVTVSSAAAEVQLVESGGGLVQPGGSLRLSCAASGRTFSYNPMGWFRQAPGKGRELVAAISRTGGSTYYPDSVEGRFTISRDNAKRMVYLQMNSLRAEDTAVYYCAAAGVRAEDGRVRTLPSEYTFWGQGTQVTVSS
notes: Produced in E. coli; also called BATCH 1; RPC main peak
B17: SEQ ID NO: 1 RPC post-peak 1 (single norleucine mis-incorporation, -18 Da) (VHH)
chain: EVQLVESGGGLVQPGGSLRLSCAASGRTFSYNPMGWFRQAPGKGRELVAAISRTGGSTYYPDSVEGRFTISRDNAKRMVYLQMNSLRAEDTAVYYCAAAGVRAEDGRVRTLPSEYTFWGQGTQVTVSSAAAEVQLVESGGGLVQPGGSLRLSCAASGRTFSYNPMGWFRQAPGKGRELVAAISRTGGSTYYPDSVEGRFTISRDNAKRMVYLQMNSLRAEDTAVYYCAAAGVRAEDGRVRTLPSEYTFWGQGTQVTVSS
modifications: norleucine in place of one methionine (site not determined), -18 Da
notes: Collected from RP-HPLC and reconstituted before the potency assay; also called -18Da product related variant
B18: SEQ ID NO: 1 E1Q, fraction E1Q-a (cyclized pyroglutamate form) (VHH)
chain: QVQLVESGGGLVQPGGSLRLSCAASGRTFSYNPMGWFRQAPGKGRELVAAISRTGGSTYYPDSVEGRFTISRDNAKRMVYLQMNSLRAEDTAVYYCAAAGVRAEDGRVRTLPSEYTFWGQGTQVTVSSAAAEVQLVESGGGLVQPGGSLRLSCAASGRTFSYNPMGWFRQAPGKGRELVAAISRTGGSTYYPDSVEGRFTISRDNAKRMVYLQMNSLRAEDTAVYYCAAAGVRAEDGRVRTLPSEYTFWGQGTQVTVSS
modifications: N-terminal pyroglutamate (cyclized Q1)
notes: Fraction of the E1Q mutant from a monoS column; mass 27857 Da

Key:
A1 domain of vWF [1] = target: T2, A1 domain of vWF (UniProt P04275 1261-1468, limits assumed); test: SPR (BIAcore), vWF A1 domain on sensor-chip
T2 construct: domain: A1 domain; also called vWF A1 domain
Procedure: (§1) The kinetic constants, kₒₙ and koff, were deduced from the obtained sensorgrams and used to calculate the equilibrium dissociation constant, KD. […] For these experiments, the samples were diluted to a 2 nM concentration. The initial binding rate was determined from the association phase of the sensorgram by linear fitting of the data points obtained between 5 and 25 seconds after the injection start and the reported value is the average of 5 independent measurements.

A1 domain of vWF [2] = target: T2, A1 domain of vWF; test: BIAcore initial binding rate, vWF A1 domain on sensor-chip, stored sample
Procedure: as §1

A1 domain of vWF [3] = target: T2, A1 domain of vWF; test: SPR (BIAcore), immobilized vWF A1 domain; M34A mutant
Procedure: as §1

A1 domain of vWF [4] = target: T2, A1 domain of vWF; test: SPR (BIAcore), immobilized vWF A1 domain; M83A mutant
Procedure: as §1

A1 domain of vWF [5] = target: T2, A1 domain of vWF; test: SPR (Biacore), A1 domain of VWF
A1 domain of vWF [6] = target: T2, A1 domain of vWF; test: SPR (BIAcore), immobilized vWF A1 domain; M78A mutant
Procedure: as §1

A1 domain of vWF [7] = target: T2, A1 domain of vWF; test: SPR (BIAcore), vWF A1 domain on sensor-chip; remark: listed apart in the source
Procedure: as §1

human RANKL [8] = target: T1, human RANKL; test: AlphaScreen competition against the human RANKL / human RANK-Fc interaction
Procedure: (§2) Finally, streptavidin coated donor beads (20 ug/ml) were added. After 1 hour of incubation plates were read on the Envison Alphascreen reader (PerkinElmer). All experiments were performed in duplicate.

human RANKL [9] = target: T1, human RANKL; test: AlphaScreen competition: Nanobody titrated against the interaction of human RANKL (1 nM) with biotinylated human RANK-Fc (3 nM); acceptor beads with anti-RANKL MAb BN-12, streptavidin donor beads
Procedure: as §2

A1 domain of vWF [10] = target: T2, A1 domain of vWF; test: PLA potency assay (Biacore) on RPC fraction, second experiment
Procedure: (§3) To determine the potency (i.e. looking at affinity measurements) of the −18Da product related variant, post-peak 1 was collected during RP-HPLC separation and directly measured in the PLA potency assay. Similar to what was done for pre-peak 1, the elution fraction representing post-peak 1 was first dried using a speedvac (miVac Duo Concentrator, Genevac) and then re-solubilized in PBS. […] Three independent but slightly different experiments were performed. In a first experiment the concentration after reconstitution was determined spectrophotometrically and no Tween was added to the PBS. In a second experiment, 0.02% Tween was present in the PBS at the time of reconstitution of the dried material (to prevent loss of protein from the relatively dilute samples) and the concentration was deduced from the peak area in a re-analysis by RP-HPLC. The RPC re-analysis also confirmed the identity of the isolated material. In a third experiment, we additionally diluted the purified main peak material to about the same concentration as the post-peak variant so to eliminate as much as possible any dissimilarities between the main and the post-peak samples. […]

A1 domain of vWF [11] = target: T2, A1 domain of vWF; test: PLA potency assay (Biacore) on RPC fraction, first experiment
Procedure: as §3

A1 domain of vWF [12] = target: T2, A1 domain of vWF; test: Biacore potency assay

Binder | Kd (A1 domain of vWF [1]) | % activity after 4 wks at 37° C. (initial binding rate against time zero) (A1 domain of vWF [2]) | % activity after 8 wks at 37° C. (initial binding rate against time zero) (A1 domain of vWF [2]) | further results
B1 | 1 nM | 88.4% | 87.4% | 
B2 |  |  |  | Kd (A1 domain of vWF [3]): 1.96 nM
B3 | 1.1 nM | 97.6% | 90.8% | 
B4 | 1.2 nM | 95.5% | 83.8% | 
B5 | 4.4 nM |  | 98.8% | 
B6 | 0.8 nM | 29.5% | 32.7% | 
B7 |  |  |  | Kd (A1 domain of vWF [4]): 1.29 nM
B8 |  |  |  | Kd (A1 domain of vWF [5]): 0.986 nM; koff (A1 domain of vWF [5]): 0.0207 s⁻¹; kon (A1 domain of vWF [5]): 2.1e+07 M⁻¹ s⁻¹
B9 |  |  |  | Kd (A1 domain of vWF [6]): 1.46 nM
B10 | 1.3 nM | 89.6% | 80.2% | 
B11 | 3.7 nM | 93.7% | 94.2% | 
B12 | 7.2 nM | 101% | 96% | 
B13 | 9.3 nM |  | 98.7% | fold drop in affinity against wild type SEQ ID NO: 2 (A1 domain of vWF [7]): 10 fold
B14 |  |  |  | IC50 (read off the curve) (human RANKL [8]): ~0.1 nM
B15 |  |  |  | IC50 (human RANKL [9]): 0.114 nM; IC50 (read off the curve) (human RANKL [8]): ~0.1 nM
B16 |  |  |  | potency relative to reference SEQ ID NO:1 (A1 domain of vWF [10]): 50%; potency relative to reference SEQ ID NO:1 (A1 domain of vWF [11]): 91.9%
B17 |  |  |  | potency relative to reference SEQ ID NO:1 (A1 domain of vWF [10]): 81%; potency relative to reference SEQ ID NO:1 (A1 domain of vWF [11]): 51.6%
B18 |  |  |  | potency relative to BATCH 1 (average) (A1 domain of vWF [12]): 105%
